Reference: patent publication US20240343811A1 (SHANDONG SIMCERE BIOPHARMACUTICAL, published 2024)
Where “and” joins values, the source holds several entries; their conditions need not be identical. Equal entries are not always repeated.

Experiments:
[1] = molecular target: T1, human CD16a (158F), full length, on FlpinCHO cells (human, UniProt P08637 17-254); test: FACS, biotinylated antibody; biotinylated antibody, no human immunoglobulin; first batch of Table 12-2
Procedure: (§1) The medium was aspirated, and the cells were washed twice with a PBS buffer and then digested with trypsin. After the digestion was terminated, the cells were washed twice with the PBS buffer. The cells were counted, and then the cell pellet was resuspended with a [PBS+2% (w/w) BSA] blocking solution to 2×10⁶ cells/ml, and added to a 96-well FACS reaction plate at 50 μl/well. […] 50 μl/well of the antibody to be detected was added at different concentrations, and incubated on ice for 1 hour. […] The mixture was centrifuged and washed 5 times with PBS, and FACS (FACS Canto II, purchased from BD Company) was used for detection and result analysis. Data analysis was performed by software (CellQuest) to obtain the mean fluorescence intensity (MFI) of the cells. Then, software (GraphPad Prism8) was used for analysis, data fitting and EC50 value calculation.
(§2) An antibody to be detected was labeled in advance according to the instructions of a biotin labeling kit (EZ-Link™ NHS-PEG4 Biotinylation Kit, purchased from Thermofisher Scientific, catalog number: 21455). […] Detection was performed according to the method of Example 3.1, wherein the biotinylated antibody was detected with fluorescein APC-labeled Streptavidin (High Concentration) (purchased from Biolegend, catalog number: 405243).

[2] = molecular target: T2, CD16 on primary human NK cells (human, UniProt P08637 17-254); test: FACS on human NK cells, biotinylated antibody; NK cells, no human immunoglobulin; Table 29 (later experiment)
T2 construct: whole, on cells; also called resting NK cells

[3] = molecular target: T3, human CD16a (158V), full length, on cells (human, UniProt P08637 17-254); test: FACS on FlpinCHO cells; no human immunoglobulin; unlabeled antibody, second batch of Table 10
T3 construct: also used as target for the bought Jurkat-NFAT reporter line stably expressing human CD16a (158V); also called FlpinCHO-human CD16a (158V); FlpinCHO-CD16a (158V)
Procedure: as §1, with “The required cells were scale-up cultured in a T-75 cell culture flask to the logarithmic growth phase. The medium” for “The medium”

[4] = molecular target: T1, human CD16a (158F), full length, on …; test: as above
Procedure: as §1, with “The required cells were scale-up cultured in a T-75 cell culture flask to the logarithmic growth phase. The medium” for “The medium”

[5] = molecular target: T3, human CD16a (158V), full length, on …; test: cell-based or functional assay
[6] = molecular target: T4, cynomolgus monkey CD16, full length, on FlpinCHO cells (cynomolgus monkey, UniProt Q8SPW2 17-254); test: FACS on FlpinCHO cells
T4 construct: also called FlpinCHO-cyno CD16; Flipin CHO-cyno CD16
T4 sequence (Q8SPW2 other isoform, or with tags, fused parts or gaps limits assumed): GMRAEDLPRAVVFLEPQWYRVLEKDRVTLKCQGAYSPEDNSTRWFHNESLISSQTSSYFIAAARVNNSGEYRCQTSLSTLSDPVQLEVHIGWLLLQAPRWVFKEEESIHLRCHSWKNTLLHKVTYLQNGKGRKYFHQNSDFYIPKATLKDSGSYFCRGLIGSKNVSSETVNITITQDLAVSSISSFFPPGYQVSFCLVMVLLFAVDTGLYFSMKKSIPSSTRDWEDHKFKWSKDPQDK
Procedure: as §1, with “The required cells were scale-up cultured in a T-75 cell culture flask to the logarithmic growth phase. The medium” for “The medium”
Flipin CHO-cyno CD16 cells were subjected to FACS detection and data analysis according to the method of Example 3.1.

[7] = molecular target: T2, CD16 on primary human NK cells; test: FACS on human NK cells, biotinylated antibody; NK cells, no human immunoglobulin; Table 15
[8] = molecular target: T3, human CD16a (158V), full length, on …; test: FACS, biotinylated antibody; biotinylated antibody, no human immunoglobulin; first batch of Table 11-1
Procedure: as §1, §2

[9] = molecular target: T3, human CD16a (158V), full length, on …; test: FACS, biotinylated antibody
[10] = molecular target: T1, human CD16a (158F), full length, on …; test: FACS, biotinylated antibody
[11] = molecular target: T3, human CD16a (158V), full length, on …; test: FACS on FlpinCHO cells; no human immunoglobulin; unlabeled antibody, first batch of Table 10
Procedure: as §1, with “The required cells were scale-up cultured in a T-75 cell culture flask to the logarithmic growth phase. The medium” for “The medium”

[12] = molecular target: T1, human CD16a (158F), full length, on …; test: as above
Procedure: as §1, with “The required cells were scale-up cultured in a T-75 cell culture flask to the logarithmic growth phase. The medium” for “The medium”

[13] = molecular target: T5, human CD16b (NA1), full length, on FlpinCHO cells (human, UniProt O75015 17-200); test: FACS on FlpinCHO cells
T5 construct: also called FlpinCHO-human CD16b (NA1)
T5 chain: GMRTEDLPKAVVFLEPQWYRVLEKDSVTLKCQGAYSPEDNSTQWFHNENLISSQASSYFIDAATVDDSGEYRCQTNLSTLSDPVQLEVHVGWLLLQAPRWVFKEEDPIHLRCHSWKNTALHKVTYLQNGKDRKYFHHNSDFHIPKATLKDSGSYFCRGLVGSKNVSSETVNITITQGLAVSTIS
In short: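 Trypsin-detached FlpinCHO cells expressing full-length CD16b were blocked in PBS+2% BSA and incubated on ice for 1 hour with antibody at varying concentrations. Binding read by flow cytometry as MFI; EC50 from curve fitting.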

- EC50 [1]: 1.73 nM
- EC50 [2]: 4.45 nM
- EC50 [3]: 1.13 nM
- EC50 [4]: 1.63 nM
- EC50, activation activity for Jurkat cell [5]: 0.03 nM
- Maximum fluorescence value [5]: 153000
- EC50 [6]: 2.92 nM
- Maximum mean fluorescence intensity [6]: 22300
- EC50 [7]: 1.99 nM
- EC50 [8]: 0.7 nM
- EC50 [9]: 0.99 nM
- Maximum mean fluorescence intensity [9]: 7520
- EC50 [10]: 3.43 nM
- Maximum mean fluorescence intensity [10]: 2010
- EC50 [11]: 0.56 nM
- EC50 [12]: ~0.82 nM
- EC50 [13]: 1.22 nM and 2.13 nM
B1: 3G8 scFv-hFc (Fc fusion)
chain: DTVLTQSPASLAVSLGQRATISCKASQSVDFDGDSFMNWYQQKPGQPPKLLIYTTSNLESGIPARFSASGSGTDFTLNIHPVEEEDTATYYCQQSNEDPYTFGGGTKLEIKGGGGSGGGGSGGGGSQVTLKESGPGILQPSQTLSLTCSFSGFSLRTSGMGVGWIRQPSGKGLEWLAHIWWDDDKRYNPALKSRLTISKDTSSNQVFLKIASVDTADTATYYCAQINPAWFAYWGQGTLVTVSAEPKSSDKTHTCPPCPAPEEFGGPSVFLFPPKPKDTLMISRTPEVTCVVVAVSHEDPEVKFNWYVDGVEVHNAKTKPREEQYNSTYRVVSVLTVLHQDWLNGKEYKCKVSNKALPAPIEKTISKAKGQPREPQVYTLPPSREEMTKNQVSLTCLVKGFYPSDIAVEWESNGQPENNYKTTPPVLDSDGSFFLYSKLTVDKSRWQQGNVFSCSVMHEALHNHYTQKSLSLSPGK
notes: also called control antibody 3G8
